Tests used:
[1] = molecular target: cynomolgus monkey CD96 on activated primary cynomolgus T cells (cynomolgus monkey); experiment: flow cytometry (MFI against concentration), activated primary cynomolgus T cells
[2] = molecular target: full-length isoform 1 of human CD96 (SEQ ID NO: 127) expressed on CHO cells (human) (UniProt P40200); experiment: flow cytometry (MFI against concentration), CHO cells expressing human CD96 isoform 1
[3] = molecular target: full-length isoform 2 of human CD96 (SEQ ID NO: 128) expressed on cells (human) (UniProt P40200); experiment: flow cytometry (MFI against concentration), CHO cells expressing human CD96 isoform 2
[4] = molecular target: full-length isoform 2 of human CD96 (SEQ ID NO: 128) expressed on cells (human) (UniProt P40200); experiment: flow cytometry (MFI against concentration), Jurkat cells expressing human CD96 isoform 2
[5] = molecular target: isoform 2 of cynomolgus monkey CD96 (SEQ ID NO: 133) expressed on CHO cells (cynomolgus monkey); experiment: flow cytometry (MFI against concentration), CHO cells expressing cynomolgus CD96 isoform 2

IgG1 isotype control antibody
Area under the curve (AUC) [1]: 1270
Area under the curve (AUC) [2]: 43500
Area under the curve (AUC) [3]: 5810
Area under the curve (AUC) [4]: 4760
Area under the curve (AUC) [5]: 6030
